This is an account of results in patent US20210388087A1.

Where a chain is given by its changes, count along the chain named. Numbers in names are those of the source.

Sequences and labels used below:
B1: H183/L072 VH F29S (antibody, name in Kabat numbering, V domains shown)
VH: QVQLVESGGGLVQPGRSLRLSCAASGFTSSNAWMHWVRQAPGKGLEWVAQIKDKGNAYAAYYAPSVKGRFTISRDDSKNSIYLQMNSLKTEDTAVYYCHYVHYASASTVLPAFGVDAWGQGTTVTVSS
VL: DIVMTQSPLSLPVTPGEPASISCQASQELVHMNRNTYLHWYQQKPGQAPRLLIYKVSNRFPGVPDRFSGSGSGTDFTLKISRVEAEDVGVYYCAQGTSVPFTFGQGTKLEIK
B2: H183/L072 VH N31E (antibody, name in Kabat numbering, V domains shown)
VH: B1 VH with S29F, N31E
VL: B1 VL
B3: H183/L072 VH D52aS (antibody, name in Kabat numbering, V domains shown)
VH: B1 VH with S29F, D53S
VL: B1 VL
B4: H183/L072 VH N53T (antibody, name in Kabat numbering, V domains shown)
VH: B1 VH with S29F, N56T
VL: B1 VL
B5: H183/L072 VH Y55S (antibody, name in Kabat numbering, V domains shown)
VH: B1 VH with S29F, Y58S
VL: B1 VL
B6: H183/L072 VH N31K (antibody, name in Kabat numbering, V domains shown)
VH: B1 VH with S29F, N31K
VL: B1 VL
B7: H183/L072 VH M34E (antibody, name in Kabat numbering, V domains shown)
VH: B1 VH with S29F, M34E
VL: B1 VL
B8: H183/L072 VH W33T (antibody, name in Kabat numbering, V domains shown)
VH: B1 VH with S29F, W33T
VL: B1 VL
B9: H183/L072 VH W33D (antibody, name in Kabat numbering, V domains shown)
VH: B1 VH with S29F, W33D
VL: B1 VL
B10: H183/L072 VH D52aE (antibody, name in Kabat numbering, V domains shown)
VH: B1 VH with S29F, D53E
VL: B1 VL
B11: H183/L072 VH K52T (antibody, name in Kabat numbering, V domains shown)
VH: B1 VH with S29F, K52T
VL: B1 VL
B12: H183/L072 VH N53D (antibody, name in Kabat numbering, V domains shown)
VH: B1 VH with S29F, N56D
VL: B1 VL
B13: H183/L072 VH W33K (antibody, name in Kabat numbering, V domains shown)
VH: B1 VH with S29F, W33K
VL: B1 VL
B14: H183/L072 VH D52aH (antibody, name in Kabat numbering, V domains shown)
VH: B1 VH with S29F, D53H
VL: B1 VL
B15: H183/L072 VH N53E (antibody, name in Kabat numbering, V domains shown)
VH: B1 VH with S29F, N56E
VL: B1 VL
B16: H183/L072 VH F29H (antibody, name in Kabat numbering, V domains shown)
VH: B1 VH with S29H
VL: B1 VL
B17: H183/L072 VH W33H (antibody, name in Kabat numbering, V domains shown)
VH: B1 VH with S29F, W33H
VL: B1 VL
B18: H183/L072 VH K52bD (antibody, name in Kabat numbering, V domains shown)
VH: B1 VH with S29F, K54D
VL: B1 VL
B19: H183/L072 VH I51D (antibody, name in Kabat numbering, V domains shown)
VH: B1 VH with S29F, I51D
VL: B1 VL
B20: H183/L072 VH A32D (antibody, name in Kabat numbering, V domains shown)
VH: B1 VH with S29F, A32D
VL: B1 VL
B21: H183/L072 VH I51E (antibody, name in Kabat numbering, V domains shown)
VH: B1 VH with S29F, I51E
VL: B1 VL
B22: H183/L072 VH K52E (antibody, name in Kabat numbering, V domains shown)
VH: B1 VH with S29F, K52E
VL: B1 VL
B23: H183/L072 VH N53H (antibody, name in Kabat numbering, V domains shown)
VH: B1 VH with S29F, N56H
VL: B1 VL
B24: H183/L072 VH M34D (antibody, name in Kabat numbering, V domains shown)
VH: B1 VH with S29F, M34D
VL: B1 VL
B25: H183/L072 VH K52D (antibody, name in Kabat numbering, V domains shown)
VH: B1 VH with S29F, K52D
VL: B1 VL
B26: H183/L072 VH K52S (antibody, name in Kabat numbering, V domains shown)
VH: B1 VH with S29F, K52S
VL: B1 VL
B27: H183/L072 VH F29D (antibody, name in Kabat numbering, V domains shown)
VH: B1 VH with S29D
VL: B1 VL
B28: H183/L072 VH N53S (antibody, name in Kabat numbering, V domains shown)
VH: B1 VH with S29F, N56S
VL: B1 VL
B29: H183/L072 VH M34S (antibody, name in Kabat numbering, V domains shown)
VH: B1 VH with S29F, M34S
VL: B1 VL
B30: H183/L072 VH T28D (antibody, name in Kabat numbering, V domains shown)
VH: B1 VH with T28D, S29F
VL: B1 VL
B31: H183/L072 VH D52aT (antibody, name in Kabat numbering, V domains shown)
VH: B1 VH with S29F, D53T
VL: B1 VL
B32: H183/L072 VH H35D (antibody, name in Kabat numbering, V domains shown)
VH: B1 VH with S29F, H35D
VL: B1 VL
B33: H183/L072 VH K52H (antibody, name in Kabat numbering, V domains shown)
VH: B1 VH with S29F, K52H
VL: B1 VL
B34: H183/L072 VH W33S (antibody, name in Kabat numbering, V domains shown)
VH: B1 VH with S29F, W33S
VL: B1 VL
B35: H183/L072 VH Y55T (antibody, name in Kabat numbering, V domains shown)
VH: B1 VH with S29F, Y58T
VL: B1 VL
B36: H183/L072 VH G26K (antibody, name in Kabat numbering, V domains shown)
VH: B1 VH with G26K, S29F
VL: B1 VL
B37: H183/L072 VH M34T (antibody, name in Kabat numbering, V domains shown)
VH: B1 VH with S29F, M34T
VL: B1 VL
B38: H183/L072 VH W33E (antibody, name in Kabat numbering, V domains shown)
VH: B1 VH with S29F, W33E
VL: B1 VL
B39: H183/L072 VH N31D (antibody, name in Kabat numbering, V domains shown)
VH: B1 VH with S29F, N31D
VL: B1 VL
B40: H183/L072 VH I51H (antibody, name in Kabat numbering, V domains shown)
VH: B1 VH with S29F, I51H
VL: B1 VL
B41: H183/L072 VH F29K (antibody, name in Kabat numbering, V domains shown)
VH: B1 VH with S29K
VL: B1 VL
B42: H183/L072 VH H35S (antibody, name in Kabat numbering, V domains shown)
VH: B1 VH with S29F, H35S
VL: B1 VL
B43: H183/L072 VH H35E (antibody, name in Kabat numbering, V domains shown)
VH: B1 VH with S29F, H35E
VL: B1 VL
B44: H183/L072 VH F29E (antibody, name in Kabat numbering, V domains shown)
VH: B1 VH with S29E
VL: B1 VL

The target in this experiment is Human CD137 ECD (human). As to the kind of experiment: single mutant vs template dBBDu183H.
Sequence of Human CD137 ECD (human) (chain, as listed by the source limits assumed): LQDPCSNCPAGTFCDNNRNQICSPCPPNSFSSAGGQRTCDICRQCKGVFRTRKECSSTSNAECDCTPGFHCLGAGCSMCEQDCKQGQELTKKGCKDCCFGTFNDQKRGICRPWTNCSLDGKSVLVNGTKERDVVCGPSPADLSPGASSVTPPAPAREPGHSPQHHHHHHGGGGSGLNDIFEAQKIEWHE
Turning to B1, the fold change of affinity is 0 fold.
The result for B2 reads 0 fold; that for B3, 0 fold; that for B4, 0 fold.
For B5, the fold change of affinity worked out at 0 fold.
Turning to B6, the fold change of affinity is 0 fold.
The result for B7 reads 0 fold; that for B8, 0 fold.
The result for B9 reads 0 fold.
The result for B10 reads 0 fold; that for B11, 0 fold; that for B12, 0 fold.
B13: the fold change of affinity turned out to be 0 fold.
With B14, the fold change of affinity stood at 0 fold.
The result for B15 reads 0 fold; that for B16, 0 fold.
As for B17, the fold change of affinity stood at 0 fold.
For the molecule B18, the fold change of affinity is 0 fold.
B19: the fold change of affinity came to 0 fold.
For the molecule B20, the fold change of affinity was 0 fold.
The result for B21 reads 0 fold; that for B22, 0 fold.
The result for B23 reads 0 fold; that for B24, 0 fold.
As for B25, the fold change of affinity is 0 fold.
The result for B26 reads 0 fold; that for B27, 0 fold; that for B28, 0 fold.
With B29, the fold change of affinity was found to be 0 fold.
As to B30, the fold change of affinity is 0 fold.
B31: the fold change of affinity was found to be 0 fold.
The result for B32 reads 0 fold; that for B33, 0 fold; that for B34, 0 fold.
The result for B35 reads 0 fold; that for B36, 0 fold.
The result for B37 reads 0 fold.
For B38, the fold change of affinity turned out to be 0 fold.
With B39, the fold change of affinity came out at 0 fold.
The result for B40 reads 0 fold; that for B41, 0 fold.
The result for B42 reads 0 fold; that for B43, 0 fold.
The result for B44 reads 0 fold.
